# According to US20110189095A1, “CRKL TARGETING PEPTIDES” (The Board of Regents, of the University of Texas System, priority 2008, published 2011):
# Columns and labels:
# [1] = tested on: human prostate cancer xenografts (DU145-derived); test: Therapy in tumor-bearing mice (tumor volume); assay type: in vivo, nude mice; conditions: equimolar amounts, systemically administered, vs untreated or vehicle
# Text: Finally, a pilot pre-clinical trial that included four cohorts of size-matched tumor-bearing mice was designed and conducted (FIG. 11). Animals received the following reagents: (i) the synthetic PSI domain-mimic peptide, (ii) the synthetic PSI domain-mimic peptide linked to a pro-apoptotic peptidomimetic (Arap et al., 2004; Ellerby et al., 1999; Kolonin et al., 2004; Zurita et al., 2004) in order to induce targeted apoptosis upon receptor-mediated internalization, (iii) the synthetic pro-apoptotic peptidomimetic alone, or (iv) vehicle alone. All peptides or peptidomimetics were administered at equimolar concentrations.
# DU145 tumor-bearing mice were size-matched and divided into individual cohorts (n=4 mice per group). The tumor-homing peptide […] (SEQ ID NO:1) was synthesized fused with the proapoptotic motif D(KLAKLAK)2. Unconjugated peptide […] (SEQ ID NO:1) or D(KLAKLAK)2 served as controls. The synthetic peptides were systemically administered and tumor volumes measured as described (Arap et al., 1998; Arap et al., 2004).
# [2] = tested on: DU145 cells; test: Peptide internalization assay (WST-1 cell viability, annexin-V staining); assay type: cell-based, human; conditions: DU145 cells; measured by cell viability and annexin-V
# Protocol: The internalization capability of the tumor-homing peptide fused through a glycinylglycine bridge to a pro-apoptotic sequence was tested as described Arap et al., 2004; Ellerby et al., 1999; Kolonin et al., 2004; Zurita et al., 2004). The conjugated tumor-homing peptide, […] (SEQ ID NO:67)-D(KLAKLAK)2 or the untargeted control peptide D(KLAKLAK)2 were synthesized and increasing equimolar peptide concentrations were added to the DU145 cells. Cell viability was assayed by the WST-1 reagent (Roche) and annexin-V staining for apoptosis (Zurita et al., 2004; Cardo-Vila et al., 2003). For tumor-homing phage localization studies, cells were incubated with 10^9 T.U. tumor-homing ([…]; SEQ ID NO:1) or a negative control (fd-tet) phage for 6 and 24 hours. Wells were washed with 20 mM glycine to remove non-specific cell surface bound phage and then fixed with 4% paraformaldehyde. The non-permeabilized cells were incubated with rabbit anti-fd bacteriophage antibody (Sigma) for 2 hours at room temperature followed by 1 hour incubation with Cy3-labeled anti-rabbit IgG antibody (Jackson ImmunoResearch). Cells were again fixed with 4% paraformaldehyde and mounted in the presence of DAPI (Vector Laboratories) and images were acquired with an Olympus fluorescence microscope.
# [3] = target: T1, rCRKL (Homo sapiens, UniProt P46109); test: Peptide binding assay with recombinant His-tag proteins (ELISA); conditions: peptide coated on microtiter plates
# T1 construct: The open reading frame of full-length CRKL cDNA (Invitrogen) was PCR-amplified and cloned in a pET28a (Novagen) expression vector; His-tag; made in house; host or cells: E. coli BL21
# Protocol: (§1) Synthetic tumor-homing peptide ([…]; SEQ ID NO:1) or PSI-derived peptide (NSTFLQEGMPTSA; SEQ ID NO:23) were coated on microtiter plates followed by blocking, and washing. The following recombinant His-tag proteins were added to the coated plates: rCRKL, rCRKL-SH2 domain, rCRKL-SH3 (N) domain, and rCRKL-SH3 (C) domain. An unrelated control protein (α2-Heremans-Schmid glycoprotein; AHSG) served as a negative control. The mixtures were incubated, washed, and labeled with the appropriate antibodies. Secondary antibodies conjugated to horse-radish peroxidase (HRP) were added followed by adding TMB substrate (Calbiochem), and analyzed by an automated ELISA reader (Bio-Tek). To determine the inhibitory activity of the tumor-homing peptide, the PSI-derived peptide, or the phage clone displaying the corresponding tumor-homing peptide were incubated with the rCRKL-SH3 (C) domain. Unrelated cyclic peptide sequences and insertless phage (fd-tet) served as negative controls. The admixtures were incubated and added to wells coated with the tumor-homing peptide. After incubation, the wells were washed, labeled with the appropriate antibodies, and processed as above.
# [4] = target: T2, rCRKL-SH3 (C) domain (Homo sapiens, UniProt P46109); test: as above
# T2 construct: cDNAs corresponding to each of the SH domains were PCR-amplified and cloned into the Sac I and Xho I restriction sites; His-tag; made in house; host or cells: E. coli BL21
# Protocol: as §1
# [5] = target: T3, rCRKL-SH3 (N) domain (Homo sapiens, UniProt P46109); test: as above; conditions: peptide coated on microtiter plates
# T3 construct: cDNAs corresponding to each of the SH domains were PCR-amplified and cloned into the Sac I and Xho I restriction sites; His-tag; made in house; host or cells: E. coli BL21
# Protocol: as §1
# [6] = target: T4, rCRKL-SH2 domain (Homo sapiens, UniProt P46109); test: as above; conditions: peptide coated on microtiter plates
# T4 construct: cDNAs corresponding to each of the SH domains were PCR-amplified and cloned into the Sac I and Xho I restriction sites; His-tag; made in house; host or cells: E. coli BL21
# Protocol: as §1
# [7] = target: T2, rCRKL-SH3 (C) domain; test: Inhibition of rCRKL-SH3 (C) domain binding to coated tumor-homing peptide; conditions: inhibitor pre-incubated with rCRKL-SH3 (C)
# Protocol: as §1
# [8] = target: T5, CRKL (Homo sapiens, UniProt P46109); test: Phage binding assay on purified recombinant protein; set-up: The open reading frame of full-length CRKL cDNA (Invitrogen) was PCR-amplified and cloned in a pET28a (Novagen) expression vector; His-tag; made in house; host or cells: E. coli BL21
# Protocol: Phage binding assays on purified proteins were carried out as described (Giordano et al. 2001). Recombinant proteins were coated on microtiter wells as previous described (Cardo-Vila et al., 2003; Smith and Scott, 1993). Briefly, proteins were immobilized on microtiter wells overnight at 4° C. 50 μl of 1 μg/ml in PBS. Wells were washed twice with PBS, blocked with PBS containing 3% BSA for 2 hours at room temperature, and incubated with 10^9 T.U. wild-type tumor-homing phage ([…]; SEQ ID NO:1), scrambled phage ([…] (SEQ ID NO:26), […] (SEQ ID NO:27), […] (SEQ ID NO:29), […] (SEQ ID NO:30)), mutant phage ([…] (SEQ ID NO:25), […] (SEQ ID NO:28)), PSI-derived cyclic phage (CNSTFLQEGMPTSAC; SEQ ID NO:23) or fd-tet phage in 50 μl of PBS containing 1.5% BSA. After 1 hour at room temperature, wells were washed ten times with PBS and phage were recovered by bacterial infection. ELISA with polyclonal anti-CKRL confirmed the presence and concentration of the CKRL recombinant proteins on the wells. […] After 3 hours, binding of CKRL to integrins was detected by using an anti-CKRL antibody followed by an HRP-conjugated anti-rabbit IgG. […]
# [9] = target: T5, CRKL; test: Binding assays with recombinant gst-PSI fusion proteins
# Text: FIG. 3A-D: Receptor binding by peptides. FIG. 3A, the recombinant His-tag CRKL (rCRKL), rCRKL-SH3 (N) domain, and rCRKL-SH3 (C) domain bind to the tumor-homing peptide-[…] (SEQ ID NO:1). FIG. 3B, the recombinant His-tag rCRKL, rCRKL-SH3 (N) domain, and rCRKL-SH3 (C) domain bind to the synthetic peptide NSTFLQEGMPTSA (SEQ ID NO:23) corresponding to a region in the PSI domain. FIG. 3C, recombinant gst fusion protein of the entire PSI domain (residues 22-82. SEQ ID NO: 71-[…]), gst-PSI linear (residues 48-62, SEQ ID NO: 72-TNSTFLQEGMPTSAR), gst-PSI cyclic (residues […], SEQ ID NO: 72-CTNSTFLQEGMPTSARC) were generated for binding assays. Both the linear and the cyclic PSI-derived regions bind to CRKL. FIG. 3D, the binding activity of the tumor-homing peptide to rCRKL-SH3 (C) domain is inhibited by the tumor-homing ([…]; SEQ ID NO:1) peptide, by the PSI-derived (NSTFLQEGMPTSA; SEQ ID NO:23) peptide or tumor-homing phage displaying SEQ ID NO:1. Bars represent mean±standard deviation from triplicate wells.
# CRKL mutants in the SH3 domain (carboxyl terminal) were generated by PCR mutagenesis. Primer sets were designed to remove 60 bp (Δ1 and Δ2) and 54 bp (Δ3) and maintain the reading frame. For the PSI domain constructs, cyclic and linear peptide forms of the PSI domain were produced. […] Protein-protein interactions were detected by using an antibody against gst.
# T2 sequence (P46109 235-296 limits assumed): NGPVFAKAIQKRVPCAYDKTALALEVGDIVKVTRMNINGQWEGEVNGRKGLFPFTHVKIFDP
# T5 sequence (P46109 whole entry): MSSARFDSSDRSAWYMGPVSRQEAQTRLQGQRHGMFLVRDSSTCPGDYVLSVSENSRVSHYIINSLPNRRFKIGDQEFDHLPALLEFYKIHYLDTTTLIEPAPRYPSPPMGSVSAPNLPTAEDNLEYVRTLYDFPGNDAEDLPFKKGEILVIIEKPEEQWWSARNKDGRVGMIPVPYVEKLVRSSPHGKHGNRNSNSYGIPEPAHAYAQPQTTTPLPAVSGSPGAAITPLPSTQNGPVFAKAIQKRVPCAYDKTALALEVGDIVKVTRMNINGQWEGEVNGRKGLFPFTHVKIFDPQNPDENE
# T4 sequence (P46109 14-102 limits assumed): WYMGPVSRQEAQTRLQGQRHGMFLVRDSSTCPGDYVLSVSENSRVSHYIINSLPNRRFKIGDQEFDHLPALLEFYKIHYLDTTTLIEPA
# T1 sequence (P46109 whole entry): as the sequence (P46109 whole entry) above
# T3 sequence (P46109 123-183 limits assumed): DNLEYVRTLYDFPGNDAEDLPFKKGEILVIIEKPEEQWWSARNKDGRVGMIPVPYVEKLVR
sequence,measurement,setting,value
YRCTLNSPFFWEDMTHECHA (listed as Homo sapiens) [Peptide 6],tumor growth / tumor volume,[1],no differences in tumor volume
same,tumor growth / tumor volume,[1]; listed as PSI domain-mimic peptide,no detectable effect
same,internalization,[2],mediates ligand-directed internalization
same,binding to rCRKL,[3],bound
same,binding attributes to the CRKL-SH3 (C) domain (site-directed mutagenesis),[4],dependent on the Pro residue and on the cyclic Cys-Cys disulfide bridge
same,binding to rCRKL-SH3 (C) domain,[4]; peptide coated on microtiter plates,bind
same,binding to rCRKL-SH3 (N) domain,[5],bind
same,binding through the SH2 domain,[6],little to no binding
same,inhibition of binding of the tumor-homing peptide to rCRKL-SH3 (C) domain,[7],inhibited
CNSTFLQEGMPTSAC [PSI-derived phage],phage binding to recombinant CRKL,[8],bind
"TNSTFLQEGMPTSAR (left off: a dimerising Fc or GST; large carriers; small tags and cut ends) [gst-PSI linear, recombinant gst fusion of linear PSI region, residues 48-62]",binding to CRKL,[9],bind
CTNSTFLQEGMPTSARC [gst-PSI cyclic],binding to CRKL,[9],bind
